In patent US12331110B2, “Monoclonal antibodies against endotrophin and the use thereof” (THE BOARD OF REGENTS OF THE UNIVERSITY OF TEXAS SYSTEM, priority 2018, dated 2025):

Tests used:
[1] = target: T1, recombinant endotrophin protein (Homo sapiens, UniProt P12111); test: Affinity measurement with BLI (Octet RED96); details: Octet (96-Red), 1:1 binding model
T1 construct: the latter consisting of 77 amino acids at the carboxy-terminal of the COL6α3 chain; CD33 signal peptide (N, cleaved yes); His-tag with EK-cleavage site (N, cleaved yes); purchased Sino Biological, Beijing, China; host or cells: HEK293
Procedure: FIGS. 12A-B. Kinetic sensorgrams for ETP-mAb4 (FIG. 12A) and each of the humanized antibodies (FIG. 12B). […]
For antibody affinity measurement, antibody (30 μg/mL) was loaded onto the protein A biosensors for 4 min. Following a short baseline in kinetics buffer, the loaded biosensors were exposed to a series of recombinant endotrophin protein at 0.1-200 nM and background subtraction was used to correct for sensor drifting. All experiments were performed with shaking at 1,000 rpm. Background wavelength shifts were measured from reference biosensors that were loaded only with antibody. Kinetic sensorgrams for each antibody are shown in FIGS. 12A&B. ForteBio's data analysis software was used to fit the data to a 1:1 binding model to extract an association rate and dissociation rate. The Kd was calculated using the ratio of koff/kon and the estimated values of […] for endotrophin ETP-mAb4 and 4 humanized ETP-hMab4 antibodies are listed in Table 4.

MCF7 breast cancer cells = test: MCF7 cisplatin/endotrophin cell survival (MTS) neutralization assay; type: cell-based, human
Procedure: FIGS. 3A-D. Generation and screening of anti-human endotrophin. (FIG. 3A) MCF7 breast cancer cells (20,000 cells) were plated into a 96-well plate. Cells were then treated with 10 μm cisplatin, 10 μm cisplatin/100 ng/mL endotrophin, and 10 μm cisplatin/100 ng/mL endotrophin/10 μg/mL ETPmAb4 for 24 hr. Cell survival was measured using a CellTiter One Solution Cell Proliferation Assay. Statistical significance of the curve fit parameters was tested using the extra sum of squares F test with P<0.05 considered significant. Goodness of curve fit is described using r2. Mean±SEM, n=3. (FIG. 3B) ETP transfected MCF7 cells (100,000 cells) were plated into a 24-well plate with 500 μL media. Then 4 μL of supernatant was loaded for Western blotting. It is estimated that approximately 1 ng of ETP was loaded, compared with the standard ETP (2 ng band). The concentration yields approximately 0.052 pg secreted ETP/hr/cell. […] ETP expression was determined by qRT-PCR and normalized to GAPDH. […] Migrated cells were counted after a 2 hr incubation. In all cases, data was represented as mean±SD, and statistical significance (*** p<0.0001) was calculated using an unpaired Student's t-test.
MTS assay screening endotrophin monoclonal antibodies. […] Cell survival was measured using a CellTiter One Solution Cell Proliferation Assay. […] The plate was then read at 490 nm using a Sunrise microplate reader (TECAN). […]

SC macrophage cells = test: SC macrophage trans-well migration towards ETP transfected MCF7 cells; type: cell-based, human; details: 10, 2, 0.4, 0.08 μg/mL antibody, 2 hr
Procedure: FIGS. 3A-D. Generation and screening of anti-human endotrophin. (FIG. 3A) MCF7 breast cancer cells (20,000 cells) were plated into a 96-well plate. Cells were then treated with 10 μm cisplatin, 10 μm cisplatin/100 ng/mL endotrophin, and 10 μm cisplatin/100 ng/mL endotrophin/10 μg/mL ETPmAb4 for 24 hr. Cell survival was measured using a CellTiter One Solution Cell Proliferation Assay. Statistical significance of the curve fit parameters was tested using the extra sum of squares F test with P<0.05 considered significant. Goodness of curve fit is described using r2. Mean±SEM, n=3. (FIG. 3B) ETP transfected MCF7 cells (100,000 cells) were plated into a 24-well plate with 500 μL media. Then 4 μL of supernatant was loaded for Western blotting. It is estimated that approximately 1 ng of ETP was loaded, compared with the standard ETP (2 ng band). The concentration yields approximately 0.052 pg secreted ETP/hr/cell. (FIG. 3C) Total RNA was extracted from MCF7, HCC1395, MDAMB231, ZR-75 and MDAMB453 cells. ETP expression was determined by qRT-PCR and normalized to GAPDH. […] Migrated cells were counted after a 2 hr incubation. In all cases, data was represented as mean±SD, and statistical significance (*** p<0.0001) was calculated using an unpaired Student's t-test.
Primary Culture of Human Cells and Transwell Assays. […] Migrated cells were then counted after 2 hr. […]

T1 sequence (P12111 3101-3177): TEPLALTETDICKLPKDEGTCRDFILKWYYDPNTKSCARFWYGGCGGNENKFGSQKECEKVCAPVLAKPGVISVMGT

kdis [1]: 2.49 E−04 1/s
kon [1]: 1.42 E+05 1/Ms
B1: ETP-mAb4: rabbit monoclonal anti-human endotrophin antibody selected for further study; VH SEQ ID NO: 125, VL SEQ ID NO: 126 (antibody, V domains shown)
VH: SSRVKESGGDLVKPGASLTLTCKASGFSFSSGYYICWVRQAPGKGLEWIACIYGGNNNPYYANWVNGRFTTSKTSSTTVTLQMTNLTGADTATYFCARKDINIGGAYELWGPGTLVTISS
VL: ELVMTQTPASVSEPVGGTVTINCQASQSISSSYLSWYQQKPGQPPKLLIYKASTLASGVPSRFKGSGSGTQFSLTISDLECADAATYYCQYSDWANSYGNAFGGGTEVVVK
neutralization of endotrophin-mediated MCF-7 cell survival (MCF7 breast cancer cells; 10 μm cisplatin, 100 ng/mL endotrophin, 10 μg/mL antibody, 24 hr): completely neutralize
restoration of cisplatinum susceptibility of endotrophin-exposed MCF-7 cells (MCF7 breast cancer cells; cisplatin plus endotrophin): forced the cells to become susceptible to cisplatinum, in a dose-dependent manner
migration of SC macrophages into the bottom chamber (SC macrophage cells): effectively prevented the migration
